# Target: GAL-4 binding domain vector alone (pPC97) (yeast, UniProt P04386)
# Test: yeast two-hybrid filter assay
# Source text: A cDNA encoding the first 230 amino acids of huntingtin containing 44 glutamine repeats was ligated to the GAL-4 binding domain in plasmid vector pPC97 for yeast two hybrid screening with a rat brain cDNA library.
# A cDNA construct containing the first 230 amino acids with 44 or 23 glutamine repeats was in-frame fused with the GAL4 DNA binding domain of plasmid pPC97[27].
binder,measurement,value
"rHAP1-BR (rat huntingtin Associated Protein1 Binding Region), GAL-4 activation domain construct (other) LLEEENDHLREEASHLDNLEDKEQMLILECVEQFSEASQQMAELSEVLVLRLEGYERQQKEITQLQAEITKLQQRCQSYGAQTEKLQQQLASEKGVHPESLRAGSHMQDYGSRPRERQEDGKSHRQRSSMPAGSVTHYGYSVPLDALPSFPETLAEELRTSLRKFITDP",binding result,no binding

# From US6093549, “Huntingtin-associated protein-related assays” (The Johns Hopkins University, dated 2000)
